Experimental data taken from patent KR20160085666A (dated 2016).
Blank lines part the entries; values can stand above or below the binder they belong to.

Biological target: T1, c-Met-Fc (#358-MT/CF, R&D Systems) (UniProt P08581 25-932)
T1 construct: Bought reagent; also called 항원(c-Met); not shown: Fc part of the bought fusion
Assay: SPR, Biacore T100; antibody captured on human Fab binder on a CM5 chip, c-Met-Fc injected at various concentrations

T1 sequence (P08581 25-932 limits assumed): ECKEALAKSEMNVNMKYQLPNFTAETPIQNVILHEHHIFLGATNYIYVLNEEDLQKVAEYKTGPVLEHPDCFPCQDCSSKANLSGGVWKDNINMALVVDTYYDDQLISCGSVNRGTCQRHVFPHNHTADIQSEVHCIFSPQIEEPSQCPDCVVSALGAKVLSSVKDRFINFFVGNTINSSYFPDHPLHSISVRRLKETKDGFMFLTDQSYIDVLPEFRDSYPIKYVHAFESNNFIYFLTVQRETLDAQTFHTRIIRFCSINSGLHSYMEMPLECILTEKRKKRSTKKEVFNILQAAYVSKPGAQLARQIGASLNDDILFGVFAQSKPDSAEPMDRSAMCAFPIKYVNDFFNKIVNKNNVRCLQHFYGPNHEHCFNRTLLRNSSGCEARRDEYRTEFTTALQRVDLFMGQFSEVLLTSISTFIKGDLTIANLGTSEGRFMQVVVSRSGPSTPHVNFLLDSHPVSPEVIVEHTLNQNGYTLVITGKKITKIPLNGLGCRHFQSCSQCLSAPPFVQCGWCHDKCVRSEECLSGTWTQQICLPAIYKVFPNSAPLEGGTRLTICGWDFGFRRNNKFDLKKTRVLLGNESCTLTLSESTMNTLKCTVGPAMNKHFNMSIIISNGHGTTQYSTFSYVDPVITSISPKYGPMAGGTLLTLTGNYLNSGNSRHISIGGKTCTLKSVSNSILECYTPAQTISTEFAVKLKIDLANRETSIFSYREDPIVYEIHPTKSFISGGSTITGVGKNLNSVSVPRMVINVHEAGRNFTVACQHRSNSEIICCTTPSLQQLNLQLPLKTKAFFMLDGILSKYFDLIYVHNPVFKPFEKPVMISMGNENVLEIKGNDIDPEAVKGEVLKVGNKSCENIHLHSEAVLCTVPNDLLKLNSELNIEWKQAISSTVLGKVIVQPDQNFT

- Kd: 0.057 nM
B1: 항 c-Met 항체 (L3-1Y/IgG2), GSKO301 세포 생산 (antibody, V domains shown)
VH: EVQLVESGGGLVQPGGSLRLSCAASGFTFTDYYMSWVRQAPGKGLEWLGFIRNKANGYTTEYSASVKGRFTISRDNSKNTLYLQMNSLRAEDTAVYYCARDNWFAYWGQGTLVTVSS
VL: DIQMTQSPSSLSASVGDRVTITCKSSQSLLASGNQNNYLAWYQQKPGKAPKMLIIWASTRVSGVPSRFSGSGSGTDFTLTISSLQPEDFATYYCQQSYSRPYTFGQGTKVEIKR
notes: Produced in GS-KO CHO cells that express the antibody only (GSKO301); also called STD (12A37); GSKO301 생산 항체

- Kd: 0.076 nM
B2: 항 c-Met 항체 (L3-1Y/IgG2), GSKO301 GOT1 세포 생산 (antibody, V domains shown)
VH: B1 VH
VL: B1 VL
notes: Produced in GS-KO CHO cells that express the antibody and overexpress GOT1 (GSKO301 GOT1); also called GSKO301 GOT1 생산 항체; anti-c-Met antibody L3-1Y/IgG2
